Measured values as given in the RNAGym collection of RNA variant scans (doi:10.1021/acssynbio.7b00057).

B1: Pistol ribozyme (parent)
chain: GGGUCGUUGUUCCAUAAUCGCGUGGAUAUGGCACGCAAGUUUCUACCGGGCACCGUAAAUGUCCGACUGGAGCCGUUCGGGCGGCUAUAAACAGACCUCAGGCCCGAAGCGUGGCGGCACCUGCCGCCGGUGGUAAAAAAGAUCGGAAGAGCACACGUCU

Variants of: B1
Assay: aptazyme ON/OFF ratio, guanine; higher = stronger switching; co-transcriptional cleavage with and without guanine

Question: With U8C G9C U10C U11C as the variant, how does the “aptazyme ON/OFF ratio” value read?
Answer: Its value is 0.964.

Question: With U8C G9A U11G C12A C13U as the variant, how does the “aptazyme ON/OFF ratio” value read?
Answer: Its value is 1.27.

Question: Which “aptazyme ON/OFF ratio” value does the source give for U8C G9A U11G C12A C13G here?
Answer: Its value is 1.29.

Question: For U8C G9A U11G C12A C13A, which “aptazyme ON/OFF ratio” value is on record?
Answer: The value was 1.22.

Question: Which “aptazyme ON/OFF ratio” value does the source give for U8C G9A U10G U11A here?
Answer: The value was 1.02.

Question: For U8C G9A U10G U11C, which “aptazyme ON/OFF ratio” value is on record?
Answer: Its value is 1.05.

Question: For U8C G9A U10G U11G, which “aptazyme ON/OFF ratio” value is on record?
Answer: The value was 1.06.

Question: Which “aptazyme ON/OFF ratio” value does the source give for U8C G9C U10G U11A here?
Answer: Its value is 1.1.

Question: With U8C G9C U10G U11G as the variant, how does the “aptazyme ON/OFF ratio” value read?
Answer: Its value is 1.11.

Question: With U8C G9C U10G U11C as the variant, how does the “aptazyme ON/OFF ratio” value read?
Answer: Its value is 1.12.

Question: For U8C G9C U10C U11G C12G, which “aptazyme ON/OFF ratio” value is on record?
Answer: Its value is 1.11.

Question: With U8C G9C U10C U11G C12U as the variant, how does the “aptazyme ON/OFF ratio” value read?
Answer: The value was 1.07.

Question: For U8C G9C U10C U11G C12A, which “aptazyme ON/OFF ratio” value is on record?
Answer: The value was 1.1.

Question: Which “aptazyme ON/OFF ratio” value does the source give for U8C G9C U10A U11C C12G here?
Answer: Its value is 1.2.

Question: For U8C G9C U10A U11C C12U, which “aptazyme ON/OFF ratio” value is on record?
Answer: Its value is 1.21.

Question: With U8C G9C U10A U11C C12A as the variant, how does the “aptazyme ON/OFF ratio” value read?
Answer: The value was 1.24.

Question: For U8C G9A U10G C12G C13A, which “aptazyme ON/OFF ratio” value is on record?
Answer: The value was 1.14.

Question: With U8C G9A U10G C12G C13G as the variant, how does the “aptazyme ON/OFF ratio” value read?
Answer: The value was 1.11.

Question: With U8C G9A U10G C12G C13U as the variant, how does the “aptazyme ON/OFF ratio” value read?
Answer: Its value is 1.22.

Question: Which “aptazyme ON/OFF ratio” value does the source give for U8C G9C U10C U11C C12A here?
Answer: The value was 1.02.

Question: For U8C G9C U10C U11C C12G, which “aptazyme ON/OFF ratio” value is on record?
Answer: The value was 1.08.

Question: With U8C G9C U10C U11C C12U as the variant, how does the “aptazyme ON/OFF ratio” value read?
Answer: Its value is 0.966.

Question: Which “aptazyme ON/OFF ratio” value does the source give for U8C G9C U10C U11A C12A C13G here?
Answer: Its value is 1.05.

Question: Which “aptazyme ON/OFF ratio” value does the source give for U8C G9C U10C U11A C12A C13A here?
Answer: Its value is 1.04.

Question: Which “aptazyme ON/OFF ratio” value does the source give for U8C G9C U10C U11A C12A C13U here?
Answer: Its value is 1.02.

Question: With U8C G9C U10C U11G C13A as the variant, how does the “aptazyme ON/OFF ratio” value read?
Answer: Its value is 1.14.

Question: For U8C G9C U10C U11G C13G, which “aptazyme ON/OFF ratio” value is on record?
Answer: Its value is 1.31.

Question: Which “aptazyme ON/OFF ratio” value does the source give for U8C G9C U10C U11G C13U here?
Answer: The value was 1.17.

Question: For U8C G9C U10A U11A C12A C13G, which “aptazyme ON/OFF ratio” value is on record?
Answer: The value was 1.11.

Question: Which “aptazyme ON/OFF ratio” value does the source give for U8C G9C U10A U11A C12A C13A here?
Answer: The value was 1.07.

Question: Which “aptazyme ON/OFF ratio” value does the source give for U8C G9C U10A U11A C12A C13U here?
Answer: The value was 1.08.

Question: For U8C G9A U11A C12G C13A, which “aptazyme ON/OFF ratio” value is on record?
Answer: The value was 1.14.

Question: Which “aptazyme ON/OFF ratio” value does the source give for U8C G9A U11A C12G C13G here?
Answer: The value was 1.2.

Question: Which “aptazyme ON/OFF ratio” value does the source give for U8C G9A U11A C12G C13U here?
Answer: The value was 1.23.

Question: Which “aptazyme ON/OFF ratio” value does the source give for U8C G9C U10G U11C C12G here?
Answer: Its value is 1.21.

Question: With U8C G9C U10G U11C C12U as the variant, how does the “aptazyme ON/OFF ratio” value read?
Answer: The value was 1.05.

Question: With U8C G9C U10G U11C C12A as the variant, how does the “aptazyme ON/OFF ratio” value read?
Answer: Its value is 1.22.

Question: Which “aptazyme ON/OFF ratio” value does the source give for U8C G9C U10C U11G C12U C13U here?
Answer: The value was 1.06.

Question: For U8C G9C U10C U11G C12U C13G, which “aptazyme ON/OFF ratio” value is on record?
Answer: The value was 1.1.

Question: For U8C G9C U10C U11G C12U C13A, which “aptazyme ON/OFF ratio” value is on record?
Answer: The value was 1.05.

Question: With U8C G9C U10G U11G C12U C13U as the variant, how does the “aptazyme ON/OFF ratio” value read?
Answer: The value was 1.09.

Question: For U8C G9C U10G U11G C12U C13G, which “aptazyme ON/OFF ratio” value is on record?
Answer: The value was 1.13.

Question: With U8C G9C U10G U11G C12U C13A as the variant, how does the “aptazyme ON/OFF ratio” value read?
Answer: The value was 1.07.

Question: With U8C G9A U10G U11C C12A as the variant, how does the “aptazyme ON/OFF ratio” value read?
Answer: Its value is 1.23.

Question: Which “aptazyme ON/OFF ratio” value does the source give for U8C G9A U10G U11C C12U here?
Answer: The value was 1.07.

Question: Which “aptazyme ON/OFF ratio” value does the source give for U8C G9A U10G U11C C12G here?
Answer: The value was 1.23.

Question: For U8C G9C U10C, which “aptazyme ON/OFF ratio” value is on record?
Answer: Its value is 1.97.

Question: For U8C G9C U10A, which “aptazyme ON/OFF ratio” value is on record?
Answer: The value was 1.51.

Question: For U8C G9C U10G, which “aptazyme ON/OFF ratio” value is on record?
Answer: Its value is 1.43.

Question: Which “aptazyme ON/OFF ratio” value does the source give for U8C G9A U11A C13U here?
Answer: The value was 1.22.

Question: With U8C G9A U11A C13A as the variant, how does the “aptazyme ON/OFF ratio” value read?
Answer: Its value is 1.2.

Question: With U8C G9A U11A C13G as the variant, how does the “aptazyme ON/OFF ratio” value read?
Answer: The value was 1.04.

Question: For U8C G9A U10G U11G C12A C13A, which “aptazyme ON/OFF ratio” value is on record?
Answer: Its value is 1.15.

Question: Which “aptazyme ON/OFF ratio” value does the source give for U8C G9A U10G U11G C12A C13U here?
Answer: Its value is 1.2.

Question: With U8C G9A U10G U11G C12A C13G as the variant, how does the “aptazyme ON/OFF ratio” value read?
Answer: The value was 1.14.

Question: With U8C G9A U10G C13G as the variant, how does the “aptazyme ON/OFF ratio” value read?
Answer: Its value is 1.14.

Question: With U8C G9A U10G C13A as the variant, how does the “aptazyme ON/OFF ratio” value read?
Answer: Its value is 1.28.

Question: Which “aptazyme ON/OFF ratio” value does the source give for U8C G9A U10G C13U here?
Answer: Its value is 1.26.

Question: For U8C G9C U10A U11A C12A, which “aptazyme ON/OFF ratio” value is on record?
Answer: Its value is 1.12.

Question: For U8C G9C U10A U11A C12U, which “aptazyme ON/OFF ratio” value is on record?
Answer: Its value is 1.05.

Question: With U8C G9C U10A U11A C12G as the variant, how does the “aptazyme ON/OFF ratio” value read?
Answer: The value was 1.25.

Question: Which “aptazyme ON/OFF ratio” value does the source give for U8C G9C U11A C12U C13A here?
Answer: The value was 1.12.

Question: Which “aptazyme ON/OFF ratio” value does the source give for U8C G9C U11A C12U C13G here?
Answer: Its value is 1.12.

Question: With U8C G9C U11A C12U C13U as the variant, how does the “aptazyme ON/OFF ratio” value read?
Answer: Its value is 1.07.

Question: With U8C G9C U10C U11C C12A C13G as the variant, how does the “aptazyme ON/OFF ratio” value read?
Answer: The value was 1.04.

Question: Which “aptazyme ON/OFF ratio” value does the source give for U8C G9C U10C U11C C12A C13U here?
Answer: Its value is 1.02.

Question: For U8C G9C U10C U11C C12A C13A, which “aptazyme ON/OFF ratio” value is on record?
Answer: The value was 1.02.

Question: With U8C G9C C12A C13G as the variant, how does the “aptazyme ON/OFF ratio” value read?
Answer: Its value is 1.1.

Question: Which “aptazyme ON/OFF ratio” value does the source give for U8C G9C C12A C13U here?
Answer: The value was 1.1.

Question: For U8C G9C C12A C13A, which “aptazyme ON/OFF ratio” value is on record?
Answer: The value was 1.08.

Question: Which “aptazyme ON/OFF ratio” value does the source give for U8C G9C U10C U11C C12G C13G here?
Answer: The value was 1.09.

Question: Which “aptazyme ON/OFF ratio” value does the source give for U8C G9C U10C U11C C12G C13U here?
Answer: Its value is 1.06.

Question: For U8C G9C U10C U11C C12G C13A, which “aptazyme ON/OFF ratio” value is on record?
Answer: Its value is 1.12.

Question: Which “aptazyme ON/OFF ratio” value does the source give for U8C G9A U10G U11G C12G C13A here?
Answer: Its value is 1.1.

Question: With U8C G9A U10G U11G C12G C13U as the variant, how does the “aptazyme ON/OFF ratio” value read?
Answer: Its value is 1.11.

Question: For U8C G9A U10G U11G C12G C13G, which “aptazyme ON/OFF ratio” value is on record?
Answer: Its value is 1.09.

Question: With U8C G9A U11G C12G C13A as the variant, how does the “aptazyme ON/OFF ratio” value read?
Answer: The value was 1.19.

Question: Which “aptazyme ON/OFF ratio” value does the source give for U8C G9A U11G C12G C13U here?
Answer: The value was 1.11.

Question: With U8C G9A U11G C12G C13G as the variant, how does the “aptazyme ON/OFF ratio” value read?
Answer: The value was 1.19.

Question: Which “aptazyme ON/OFF ratio” value does the source give for U8C G9A U10G U11C C12G C13A here?
Answer: The value was 1.18.

Question: With U8C G9A U10G U11C C12G C13G as the variant, how does the “aptazyme ON/OFF ratio” value read?
Answer: The value was 1.28.

Question: With U8C G9A U10G U11C C12G C13U as the variant, how does the “aptazyme ON/OFF ratio” value read?
Answer: The value was 1.2.

Question: For U8C G9C U10G U11G C13A, which “aptazyme ON/OFF ratio” value is on record?
Answer: Its value is 1.11.
